# ± gives the uncertainty stated by the source.
# Experiment: self-splicing fitness, log relative to wild type (ln ratio); higher = more splicing; Tetrahymena group I intron in knt gene, E. coli kanamycin selection, DiMSum; sequences stand for … in CUCUCU…GGAGGGAAAAGUUAUCAGGCAUGCACCUGGUAGCUAGUCUUUAAACCAAUAGAUUGCAUCGGUUUAAAAGGCAAGACCGUCAAAUUGCGGGAAAGGGGUCAACAGCCGUUCAGUACCAAGUCUCAGGGGAAACUUUGAGAUGGCCUUGCAAAGGGUAUGGUAAUAAGCUGACGGACAUGGUCCUAACCACGCAGCCAAGUCCUAAGUCAACAGAUCUUCUGUUGAUAUGGAUGCAGUUCACAGACUAAAUGUCGGUCGGGGAAGAUGUAUUCUUCUCAUAAGAUAUAGUCGGACCUCUCCUUAAUGGGAGCUAGCGGAUGAAGUGAUGCAACACUGGAGCCGCUGGGAACUAAUUUGUAUGCGAAAGUAUAUUGAUUAGUUUUGGAGUACUCGUGGUCG
# Procedure, shortened: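 DiMSum derived fitness as the error-weighted combination of fold changes across replicates, kanamycin versus no kanamycin, normalised to wild type. E. coli BL21(DE3) held the library, which randomised all eight P1ex-region intron nucleotides within the knt kanamycin-resistance gene on pET-22b(+). Six replicate transformations grew overnight at 37°C or 30°C on LB agar with or without 25 μg/mL kanamycin, also containing 100 μg/mL carbenicillin, 50 μM IPTG and 0.2% rhamnose, and pooled colonies were amplicon-sequenced on an Illumina HiSeq 2500.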
sequence,measurement,setting,value
AGACAGCAAUAUUACGCUUA,self-splicing fitness (ln),30 °C,-0.813 ± 0.086
same,self-splicing fitness (ln),37 °C,-0.083 ± 0.12
UCCGAGCAAUAUUACGUGGG,self-splicing fitness (ln),30 °C,-2.8 ± 0.17
same,self-splicing fitness (ln),37 °C,-2.56 ± 0.26
CUAGAGCAAUAUUACGAGCU,self-splicing fitness (ln),30 °C,-3.73 ± 0.31
same,self-splicing fitness (ln),37 °C,-3.37 ± 0.28
AUACAGCAAUAUUACGCUAA,self-splicing fitness (ln),30 °C,-1.96 ± 0.12
same,self-splicing fitness (ln),37 °C,-1.01 ± 0.12
CUACAGCAAUAUUACGACUC,self-splicing fitness (ln),30 °C,-4.35 ± 0.22
same,self-splicing fitness (ln),37 °C,-2.7 ± 0.24
AUCUAGCAAUAUUACGCCCG,self-splicing fitness (ln),30 °C,-0.765 ± 0.38
same,self-splicing fitness (ln),37 °C,-0.733 ± 0.3
AAUGAGCAAUAUUACGUCCG,self-splicing fitness (ln),30 °C,-4.29 ± 0.39
same,self-splicing fitness (ln),37 °C,-3.13 ± 0.29
CUCUAGCAAUAUUACGUUGC,self-splicing fitness (ln),30 °C,-3.71 ± 0.3
same,self-splicing fitness (ln),37 °C,-3.08 ± 0.35
UCCCAGCAAUAUUACGAGUG,self-splicing fitness (ln),30 °C,-3.66 ± 0.18
same,self-splicing fitness (ln),37 °C,-1.79 ± 0.13
UAGGAGCAAUAUUACGGAGU,self-splicing fitness (ln),30 °C,-1.77 ± 0.36
UGGCAGCAAUAUUACGCUCC,self-splicing fitness (ln),30 °C,-2.19 ± 0.37
AGUUAGCAAUAUUACGACGC,self-splicing fitness (ln),30 °C,-0.0216 ± 0.11
same,self-splicing fitness (ln),37 °C,0.486 ± 0.13
CGAGAGCAAUAUUACGGAAG,self-splicing fitness (ln),30 °C,-3.57 ± 0.28
same,self-splicing fitness (ln),37 °C,-2.54 ± 0.23
UAAAAGCAAUAUUACGUUAC,self-splicing fitness (ln),30 °C,-3.71 ± 0.22
same,self-splicing fitness (ln),37 °C,-2.78 ± 0.21
GACGAGCAAUAUUACGGUUA,self-splicing fitness (ln),30 °C,-1.65 ± 0.12
same,self-splicing fitness (ln),37 °C,-0.972 ± 0.1
GAAGAGCAAUAUUACGCAUA,self-splicing fitness (ln),30 °C,-3.1 ± 0.19
same,self-splicing fitness (ln),37 °C,-2.62 ± 0.22
GACUAGCAAUAUUACGGUUG,self-splicing fitness (ln),30 °C,-1.25 ± 0.072
same,self-splicing fitness (ln),37 °C,-0.449 ± 0.092
CCACAGCAAUAUUACGAACC,self-splicing fitness (ln),30 °C,-3.86 ± 0.32
same,self-splicing fitness (ln),37 °C,-2.46 ± 0.35
GGCAAGCAAUAUUACGGCUA,self-splicing fitness (ln),30 °C,-0.251 ± 0.11
same,self-splicing fitness (ln),37 °C,1.23 ± 0.15
AUAAAGCAAUAUUACGGCUA,self-splicing fitness (ln),30 °C,0.756 ± 0.14
same,self-splicing fitness (ln),37 °C,-0.15 ± 0.14
CCAAAGCAAUAUUACGCGCC,self-splicing fitness (ln),30 °C,-3.43 ± 0.21
same,self-splicing fitness (ln),37 °C,-2.71 ± 0.27
AUCCAGCAAUAUUACGAGAG,self-splicing fitness (ln),30 °C,-1.45 ± 0.098
same,self-splicing fitness (ln),37 °C,-1.05 ± 0.1
ACGGAGCAAUAUUACGGCGC,self-splicing fitness (ln),30 °C,0.159 ± 0.44
same,self-splicing fitness (ln),37 °C,-0.221 ± 0.45
UUGUAGCAAUAUUACGACAA,self-splicing fitness (ln),30 °C,-0.0967 ± 0.15
same,self-splicing fitness (ln),37 °C,-0.283 ± 0.15
AGCAAGCAAUAUUACGAGUC,self-splicing fitness (ln),30 °C,-3.5 ± 0.16
same,self-splicing fitness (ln),37 °C,-1.84 ± 0.14
CCUUAGCAAUAUUACGCCCU,self-splicing fitness (ln),30 °C,-1.89 ± 0.48
UUAUAGCAAUAUUACGUUAC,self-splicing fitness (ln),30 °C,-4.01 ± 0.43
same,self-splicing fitness (ln),37 °C,-3.56 ± 0.37
CCUAAGCAAUAUUACGCUGG,self-splicing fitness (ln),30 °C,-4.1 ± 0.32
same,self-splicing fitness (ln),37 °C,-2.48 ± 0.25
GCUCAGCAAUAUUACGCUCG,self-splicing fitness (ln),30 °C,-1.1 ± 0.11
same,self-splicing fitness (ln),37 °C,-1.31 ± 0.18
CCUUAGCAAUAUUACGGGCC,self-splicing fitness (ln),30 °C,-2.94 ± 0.31
same,self-splicing fitness (ln),37 °C,-2.54 ± 0.35
UUUCAGCAAUAUUACGUAAA,self-splicing fitness (ln),30 °C,-0.728 ± 0.089
same,self-splicing fitness (ln),37 °C,-0.608 ± 0.11
AAGCAGCAAUAUUACGUUCC,self-splicing fitness (ln),30 °C,-1.73 ± 0.11
same,self-splicing fitness (ln),37 °C,-1.54 ± 0.17
GAUAAGCAAUAUUACGCAAA,self-splicing fitness (ln),30 °C,-1.8 ± 0.16
same,self-splicing fitness (ln),37 °C,-1.49 ± 0.2
UUUAAGCAAUAUUACGUGAA,self-splicing fitness (ln),30 °C,-0.503 ± 0.093
same,self-splicing fitness (ln),37 °C,-0.616 ± 0.095
CCUGAGCAAUAUUACGUUUU,self-splicing fitness (ln),30 °C,-3.74 ± 0.23
same,self-splicing fitness (ln),37 °C,-2.81 ± 0.25
AAACAGCAAUAUUACGCGUC,self-splicing fitness (ln),30 °C,-2.3 ± 0.095
same,self-splicing fitness (ln),37 °C,-1.78 ± 0.12
AACAAGCAAUAUUACGAGGA,self-splicing fitness (ln),30 °C,-1.76 ± 0.14
same,self-splicing fitness (ln),37 °C,-2.42 ± 0.16
ACUGAGCAAUAUUACGCUGG,self-splicing fitness (ln),30 °C,-3.54 ± 0.2
same,self-splicing fitness (ln),37 °C,-1.4 ± 0.2
GUGAAGCAAUAUUACGUGGU,self-splicing fitness (ln),30 °C,-4.17 ± 0.24
same,self-splicing fitness (ln),37 °C,-1.61 ± 0.14
CACGAGCAAUAUUACGAUAU,self-splicing fitness (ln),30 °C,-2.64 ± 0.15
same,self-splicing fitness (ln),37 °C,-2.19 ± 0.28
CGGCAGCAAUAUUACGUAGC,self-splicing fitness (ln),30 °C,-4.16 ± 0.36
same,self-splicing fitness (ln),37 °C,-3.03 ± 0.24
CGACAGCAAUAUUACGACUC,self-splicing fitness (ln),30 °C,-2.83 ± 0.18
same,self-splicing fitness (ln),37 °C,-1.18 ± 0.15
ACACAGCAAUAUUACGUUGA,self-splicing fitness (ln),30 °C,-1.91 ± 0.091
same,self-splicing fitness (ln),37 °C,-1.92 ± 0.11
GUCAAGCAAUAUUACGCAUA,self-splicing fitness (ln),30 °C,-1.58 ± 0.063
same,self-splicing fitness (ln),37 °C,-0.367 ± 0.06
CCUCAGCAAUAUUACGUUGG,self-splicing fitness (ln),30 °C,-3.17 ± 0.13
same,self-splicing fitness (ln),37 °C,-3.24 ± 0.21
GCUGAGCAAUAUUACGCGGG,self-splicing fitness (ln),30 °C,-2.93 ± 0.14
same,self-splicing fitness (ln),37 °C,-1.19 ± 0.14
CGCGAGCAAUAUUACGAGCA,self-splicing fitness (ln),30 °C,-1.27 ± 0.13
same,self-splicing fitness (ln),37 °C,-0.102 ± 0.18
AUGAAGCAAUAUUACGAUCC,self-splicing fitness (ln),30 °C,-0.571 ± 0.11
same,self-splicing fitness (ln),37 °C,0.455 ± 0.16
